This is an account of results in US6410239B1, “Identification and comparison of protein—protein interactions that occur in populations and identification of inhibitors of these interactors” (CuraGen Corporation, priority 1996, dated 2002).

The target of data set [1] is T1, interaction between the RAF-GAD and RAS-GBD proteins (Homo sapiens, UniProt P04049).
T1 construct: expressed in transfected cells; host or cells: Saccharomyces cerevisiae diploids of YULH-RAFINT (RAF-GAD integrated at MER2) x N106' (RAS-GBD plasmid)
Kind of data set: Peptide expressed from pPEV1 tested for inhibition of the RAS-RAF interaction in yeast mating two-hybrid assay. The data set is classed as cell-based. An excerpt: These oligonucleotides also introduced unique restriction sites (EagI and SphI) that facilitate the cloning of the amplified DNA fragments into the integration vector R1400. The R1400 plasmid vector consists of two yeast genes LYS2 (Fleig et al., 1986, Gene 46:237-245) and MER2 (Engebrecht et al., 1991, Cell 66:1257-1268). The LYS2 marker is used for the selection of integration events, while, the MER2 gene is used for integration of the entire plasmid into the yeast genome. MER2 is a gene that is not essential for the vegetative growth of yeast. The RAF-GAD gene was cloned into the R1400 plasmid to yield RAF-INT. This plasmid was then digested with the restriction enzyme PstI that has a site in the MER2 gene. The restriction was done in a partial manner as there are other PstI sites in the plasmid vector. The restriction digestion was allowed to proceed only for 1 minute and then the enzyme was inactivated by extracting with phenol-chloroform and the DNA was then precipitated. This linearized DNA was used to transform the YULH strain to yield YULH-RAFINT. Integration occurs at the MER2 locus, and the integration events were selected by growing the transformants on media lacking lysine. The N106′ strain was transformed with the RAS-GBD plasmid to form N106′ (RAS-GBD). The proper functioning of the RAF-GAD fusion was confirmed by mating YULH-RAFINT and N106′ (RAS-GBD) and observing the resultant activation of the URA3 and the lacZ Reporter Genes.
The PEVs serve to express and localize peptides (or proteins) in the nucleus of the yeast cell where their potential to inhibit specific protein-protein interactions is tested. This inhibitory activity of the peptides is monitored by their ability to inhibit the activity of the reporter genes like URA3, HIS3 and lacZ.
The PEVs comprise the following operably linked components (FIG. 7): an ADC1 promoter (ADC1-P) for supporting transcription in yeast (Ammerer, 1983, Meth. Enymol. 101:192-201); a nucleotide sequence encoding an SV40 Nuclear Localization Signal (NLS) for transporting the peptide to the nucleus (Dingwal and Laskey, 1991, Trends. Biochem. Sci. 16:478); followed by a stop codon (UAG) for terminating translation; means for inserting a DNA sequence encoding a candidate inhibitor peptide into the PEV in such a manner that the candidate inhibitor peptide is capable of being expressed as part of a fusion protein containing the NLS; and an ADC1 transcription termination signal. The NLS from SV40 large T comprises a 7 amino acid stretch (PKKKRKV) (SEQ ID NO:20) that has been successfully used in targeting proteins into the yeast nucleus (Benton et al., 1990, Mol. Cell. Biol. 10:353-360). […]

Data set [2] addresses T2, YULH(R4-GBD) and N106′ (FKBP-12-GAD) interacting hybrid proteins (Homo sapiens, UniProt P62942).
T2 construct: These primers flank the entire coding region of the FKBP-12 protein; expressed in transfected cells; host or cells: Saccharomyces cerevisiae YULH(R4-GBD) x N106'(FKBP-12-GAD)
Kind of data set: 5-FOA assay identifying cells containing a non-genetically-encoded inhibitor of protein-protein interaction. The data set is classed as cell-based, yeast. As for the experimental part: The above method described for the isolation of inhibitor peptides can also be used to screen and isolate inhibitors that are not genetically encoded. In other contexts, for example, a yeast-based transcription-inhibition assay has been used to screen for inhibitors of the HIV-1 proteinase (Murray et al., 1993, Gene 134:123-128). The reporter strains YULH(R4-GBD) and N106′ (FKBP-12-GAD), that harbor the reporter gene-systems and the two interacting proteins are grown in a 96-well format with each well containing 200 μl of media that selects for both the GBD and GAD plasmids (SC-LEU-TRP).
After a growth period (24-36 hours) that is sufficient for early log-phase growth (a cell density of 1×10^7 cells/ml), the cells are exposed to an RNA inhibitor at a concentration of 100 nM for 1-2 hours. This RNA inhibitor is of the sequence 5′-[…]-3′ (SEQ ID NO:35). The pyrimidines in this RNA are modified with 2′-amino-2-deoxypyrimidines that causes the RNA to be resistant to nucleases. This RNA binds with high affinity to VEGF (Green et al., 1995, Current Biol. 2:683-695). […]
In the absence of the RNA inhibitor, cells are not able to grow in 5-FOA. […] The activity of the lacZ gene is determined by assaying the β-galactosidase activity of the cells as mentioned in Section 6.1.11. […]

Another data set addresses T3, VEGF (Homo sapiens, UniProt P15692).
T3 sequence (P15692 207-395): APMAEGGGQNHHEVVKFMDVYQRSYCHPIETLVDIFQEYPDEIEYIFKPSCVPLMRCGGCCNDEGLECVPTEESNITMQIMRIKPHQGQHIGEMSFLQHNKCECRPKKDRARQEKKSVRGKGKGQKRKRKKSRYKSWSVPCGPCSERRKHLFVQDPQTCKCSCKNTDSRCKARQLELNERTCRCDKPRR
To be noted: cited from earlier work.

T2 sequence (P62942 whole entry): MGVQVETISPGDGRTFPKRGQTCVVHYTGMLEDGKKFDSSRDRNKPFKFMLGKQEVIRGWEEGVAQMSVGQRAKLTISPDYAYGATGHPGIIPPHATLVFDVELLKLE

Consider “RAS effector peptide: RAS amino acids 17-40, from a region important for interaction with RAF, expressed from pPEVRAS-E (SALTIQLIQNHFVDEYDPTIEDSY; UniProt P01112 17-40, looked up, fragment)”, for which, in data set [1] (YULH2RAS (pPEVRAS-E) mated to N106′(RAS-GBD), control diploids are LACZ+), the “β-galactosidase activity (lacZ reporter) of diploids” value is “negative for β-galactosidase activity”. Besides, the “growth of diploids on media lacking uracil (URA3 reporter)” value in data set [1] (YULH2RAS (pPEVRAS-E) mated to N106′(RAS-GBD), control diploids are URA+) is “unable to grow on media lacking uracil”. Moreover, the “growth of diploids on medium containing 5-FOA” value in data set [1] (YULH2RAS (pPEVRAS-E) mated to N106′(RAS-GBD), control diploids unable to grow) is “grow on medium containing 5-FOA”. Also, the “inhibition of the protein-protein interaction” value in data set [1] (peptide expressed in the yeast nucleus from pPEV1) is recorded as “inhibits the interaction”.

With “5′-CCCUGAUGGUAGACCGGGGUG-3′ (chemistry not fully specified) [RNA inhibitor]”, the “growth in SC-TRP-LEU in the absence of 5-FOA, in the presence of the inhibitor” value in data set [2] (RNA inhibitor at 100 nM) is listed as “able to grow”. In data set [2] (RNA inhibitor at 100 nanomolar, without inhibitor cells are not able to grow in 5-FOA), the “growth in media containing 5-FOA and uracil” value is listed as “Growth is evident”. Also, the “binding affinity to VEGF” value in the data set with VEGF is “high affinity”.
